Data as given in publication PMC7225340.

Columns and labels:
[1] = biological target: human IL21R-Fc (bivalent) (human) (UniProt Q9HBE5); assay: BLI; ForteBio Octet RED384/HTX, 27 C; 10 mM Tris pH 7.5, 150 mM NaCl, 1 mM CaCl2, BSA, 0.13% Triton X-100; receptor reagent bivalent IL21R-Fc (how it was held is not told); samples in 3-fold dilutions, top 10 nM for wild-type IL21 fusions, 300 nM for mutein fusions; association 20 min, dissociation 1.5 h; global 1:1 fit
[2] = biological target: cyno IL21R(1-232)-FLAG-His (cynomolgus monkey); assay: BLI; ForteBio Octet RED384/HTX, 27 C; 10 mM Tris pH 7.5, 150 mM NaCl, 1 mM CaCl2, BSA, 0.13% Triton X-100; biotinylated human or cyno IL21R(1-232)-FLAG-His captured on streptavidin SAX tips to 2.0 nm; samples in 3-fold dilutions, top 300 nM for mutein fusions; association 20 min, dissociation 1.5 h; global 1:1 fit

Chain of UniProt Q9HBE5 (Q9HBE5 20-232): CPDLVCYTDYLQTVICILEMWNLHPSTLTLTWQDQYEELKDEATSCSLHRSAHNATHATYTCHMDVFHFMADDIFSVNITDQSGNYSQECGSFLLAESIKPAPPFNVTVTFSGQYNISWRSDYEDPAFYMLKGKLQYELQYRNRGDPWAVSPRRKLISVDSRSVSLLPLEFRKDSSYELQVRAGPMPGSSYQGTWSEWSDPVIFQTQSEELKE

Substance | Kd [1] [nM] | Kd [2] [nM]
anti-PD-1 mAb x IL-21 K73E, homodimer | 0.073 | –
anti-PD-1 mAb x IL-21 R76N, homodimer | 15 | –
anti-PD-1 mAb x IL-21 K73S, homodimer | 0.17 | –
anti-PD-1 mAb x IL-21 R5Q, homodimer | 2.1 | –
anti-PD-1 mAb x IL-21 R76H, homodimer | 2 | –
anti-PD-1 mAb x IL-21 R65P, homodimer | 0.9 | –
anti-PD-1 mAb x IL-21 K73Q, homodimer | 0.069 | –
anti-PD-1 mAb x IL-21 R76M, homodimer | 0.6 | –
anti-PD-1 mAb x IL-21 R65G, homodimer | 0.13 | –
anti-PD-1 mAb x IL-21 Q12N, homodimer | 0.38 | –
anti-PD-1 mAb x IL-21 K73D, homodimer | 0.44 | –
anti-PD-1 mAb x IL-21 P79D, homodimer | 0.32 | –
anti-PD-1 mAb x IL-21 R76K, homodimer | 0.2 | –
anti-PD-1 mAb x IL-21 Q12A, homodimer | 0.23 | –
anti-PD-1 mAb x IL-21 Q12T, homodimer | < 0.26 | –
anti-PD-1 mAb x IL-21 Q12V, homodimer | < 2.2 | –
anti-PD-1 mAb x IL-21 Q12D, homodimer | 0.42 | –
anti-PD-1 mAb x IL-21 K72D, homodimer | 0.24 | –
anti-PD-1 mAb x IL-21 K72P, homodimer | 9 | –
anti-PD-1 mAb x IL-21 K72G, homodimer | 0.25 | –
anti-PD-1 mAb x IL-21 R76P, homodimer | 0.4 | –
anti-PD-1 mAb x IL-21 L13D, homodimer | 11 | –
anti-PD-1 mAb x IL-21 K73H, homodimer | 0.19 | –

Results, then the substance that gave them:

Kd [1] [nM] | Kd [2] [nM] | Substance
0.031 | – | anti-PD-1 mAb x IL-21 Q12E, homodimer
0.32 | – | anti-PD-1 mAb x IL-21 Q12S, homodimer
12 | – | anti-PD-1 mAb x IL-21 R76D, homodimer
0.66 | – | anti-PD-1 mAb x IL-21 K77G, homodimer (from UniProt Q9HBE4 25-162)
– | 0.044 | recombinant human IL-21 (free wild-type cytokine) (from UniProt Q9HBE4 25-162) (ligand)
1 | – | anti-PD-1 mAb x IL-21 K75P, homodimer
0.24 | – | anti-PD-1 mAb x IL-21 R5A, homodimer
0.17 | – | anti-PD-1 mAb x IL-21 Q19D, homodimer
4 | – | anti-PD-1 mAb x IL-21 I8S, homodimer
2 | – | anti-PD-1 mAb x IL-21 K73P, homodimer
2 | – | anti-PD-1 mAb x IL-21 R76G, homodimer
0.2 | – | anti-PD-1 mAb x IL-21 R76L, homodimer
0.17 | – | anti-PD-1 mAb x IL-21 K73I, homodimer
0.053 | – | anti-PD-1 mAb x IL-21 K73A, homodimer
0.25 | – | anti-PD-1 mAb x IL-21 K73G, homodimer
0.16 | – | anti-PD-1 mAb x IL-21 K75G, homodimer
